Measured values: patent US20090208519A1

Molecular target: native Neospora caninum cyclophilin (NcCyP) in whole-cell tachyzoite lysate (NcAg) (Neospora caninum) (UniProt P84343)
Test: cell-based or functional assay

Chain of UniProt P84343 (P84343 18-178 limits assumed): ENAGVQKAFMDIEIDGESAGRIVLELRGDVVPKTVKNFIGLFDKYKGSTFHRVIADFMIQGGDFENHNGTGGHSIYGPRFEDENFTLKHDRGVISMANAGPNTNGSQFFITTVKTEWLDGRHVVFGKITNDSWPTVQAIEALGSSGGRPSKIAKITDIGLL

NcAg-stimulated IFNγ production in mouse splenocytes: 10 to 100 nM
Substance: cyclosporin A (CsA) (peptide)
